Results: the RNAGym collection of RNA variant scans (doi:10.1073/pnas.2313332121)
Variants at the floor of the assay were thinned out.

B1: TPR 5TU (parent)
chain: GGAUCUUCUCGAUCUAACAAAAAAGACAAAUCUGCCACAAAGCUUGAGAGCAUCUUCGGAUGCAGAGGCGGCAGCCUUCGGUGGCGCGAUAGCGCCAACGUUCUCAACUAUGACACGCAAAACGCGUGCUCCGUUGAAUGGAGUUUAUCAUG

Variants of: B1
Assay: polymerase ribozyme fitness, log enrichment relative to wild type (log ratio); higher = more active; in vitro selection for triplet polymerase activity
Method in brief: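 Mutant libraries were PCR-built and transcribed for each subunit of a heterodimeric triplet polymerase ribozyme and selected for one round in triplicate at −7 °C, frozen, before gel excision of extended constructs and streptavidin-bead capture. Input and output libraries were Illumina-sequenced, keeping genotypes with ≥10 input reads and ≥1 read per output. Fitness is a logarithmic ratio of genotype to wild-type enrichment, in base 2, using inverse-variance-weighted replicate averages.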

Variant | polymerase ribozyme fitness (log ratio)
GGAUCUUCUCGAUCUAACAAAAAAGACAAAUCUGCCAGAAAGCUUGAGAGCAUCUUCGGAUGCAGAGGCGGCAGCCUUCGGUGGAGCGAUAGCGCCAACGUUCUCAACUAUGACAAGCAGAACGCGUGCUCCGUUGAAUGGAGUUUAUCAUG | -2.28
GGAUCGCCUCGAUCUAACAUAAAAGACAAAUCUGCCACGCACCUUGAGAGCAUCUUCGAAUGCAGAGGCGGCAGCCUUCGGUGGCGCGAUAUGGCCAACGUUCUCAACUAUGACUUGCAAAACGCGUGCUCCGUUGAAUGGAGUUUAUCAUG | ≤ -4.2
GGAUCUUCUCGAUCGAACAAAAAAGACAAAUCUGCCACAAAGCUUGAGAGCAUCUUCGGAUGCAGAGGCGGCAGCCUUCGGUGGCGCGAUAGCCCCAACGUUCUCAACUAUGACCGGCAAAACGCGUGCUCCGUUGAAUGGAGUUUAUCAUG | -3.85
GGAUCUUCUCGUUCUAACAAAAAAGACAAAUCUGCCACCAAGCUUGAGAGCGUCUUGGGAUGCAGAGGCGGCAGCCUUCGGUGGCGCGAUAGCGCCAACGUUCUCAACUAUGACACGCAAAACGCGUGCUCCGUUGAAUGGAGUUUAUCAUG | -4.2
GGAUCUUCUCGAUCUAACAAAAAAGACAAAUCUGCCACAAAGCUUGAGAUCAUCUUCGGAUGCAGAGGCGGCAGCCUUCGGUGGAGCGAUAGCGCCAACGUUCUCAACUAUGACACGCAAAACGCGUGCUCCGUUGAAUGGAGUUUAUCAUG | -1.4
GGAUCUUCGCGAUCUAACAAAAAAGACAAAUCUGCCACAAAGCUUGAGAGCAUGUUCGGAUACAGAGGCGGCAGACUUCGCUGGCGCGAUAGGGCAAACGUUGUCAACUAUGACACGUAAAACGCGUGCUCCGUUGAAUGGAGUUUAUCAUG | ≤ -4.2
GGAUCUUCUCGAUCUAACAAAAAAGACAAAUCUGCCACCAAGCUUGAGAGCAUCUUCGGAUGCAGAGGCGGCAGCCUUCGGUGGCGCGAUAGCGCGAACGUUCUCAACUAUGACACGCAAAACGCGUGCUCCGUUGUAUGGAGUUUAUCAUG | ≤ -4.2
GGAUCUUCUCGAUCUAACAAAAAAGACAAAUCUGCCACAAAGCUUGAGAGCAGCUUCGAAUGCAGAGGCGGCAGCCUUCGGUGGCGCGAUAGCGCCAACGUUCUCAACUAUGACACGCAAAACGCGUGCUCCGUUGAAUGGAGUUUAUCAUG | -1.37
GGAUCUUCUCGAUCUAACAAAACAGACAAAUCUGCCACAAAGCUUGAGAGCAUCUUCGGAUGCAGAGGCGGCAGCCUUCGGUGGCGCGAUAGAGCCAACGUUCUCAACUAUGACACGCAAAACGCGUGCUCCGUUGAAUGGAGUUUAUCAUG | -3.87
GGAUCUUCUCGAUCUAACAAAAAAGACAAAUCUGCCACAAAGCUUGAGAGCAUCUUCGGAUGCAGAGGCGGCAGCCUUCGGUGGCGCGAACGCGCCAACGUGCUCAACUAUGACACGCAAAACGCGUGCUCCGUUGAAUGGAGUUUAUCAGG | ≤ -4.2
GGAUCUUCUCGAUCUAACACAAAAGACAAAUCUGCCACAAAGCUUGAGAGCAUCUUCGGAUGCAGAGGCGGCAGCCUUCGGUGGCGCGAUAGCGCCAACGUUCGCACCUAUGACACGCAAAACGCGUGCUCCGUUGAAUGGAGUGUAUCAUG | ≤ -4.2
GGAUCUUCUCGAUCUAACAAAAAAGACAAAUCUGCCACAAAGCUUGAGAGCAUAUUCGCAUGCAGAGGCGGCAGCCUUCGGUGACGCGAUAGCGCCAACGUUCUCAACUAUGACACGCAAAACGCGUGCUCCGUUGAAUGGAGUUUAUCAUG | -0.321
GGAUCUUCUCGAUCUAACAAAAAAGACAAAUCUGCAACAAAGCUUGAGAGCCUCUUCGGAUGCAGAGGCGGCAGCCUUCGGUGGGGCGAUAGCGCCAACGUUCUCAACUAUGACACGCAGAUCGCGUGCUCCGUUGAAUGGAGUUUAACAUG | -3.85
GGAUCUUCUCGAUCUAACAAAAAAGACAAAUCUGCCACAAAGCUUGAGAGCAUCUUCGGAUGCAGAGGCGGCAGCCUUCGGUGGCGCGAUAGCGCCAACGUUCUCAACUAUGACACGUAAAACGCGUGCUCCGUUGAAUGGAGUUUAGCAUG | -3.62
GGAUCUUCUCGAUCUAACAAAAAAGACAAAUCUGCCACAAAGCUUGAGAGCAUCUUCGGAUGCAGAGGCGGCCGCCUUCGGUGGCCCGAUAGCGCCAACGUUCCCAACUAUGACACGCAAAACGCGUGCUCCGUUGAAUGGAGUUUAUCAUG | ≤ -4.2
GGAUCUUCUCGAUCUAACAAAAAAGACAAAUCUGCCACAAAGCUUGAGAGCAUCUUCGGAUGCAGAGGCGGCAGCCUUCGGUGGCGCGAUAGCGCCAACGUUCUCAACUAUGACACGCAAAACGCGUGCUCCGUACAAUGGAGUUUAUCAUG | -4.14
GGAUCUUCUGGAUCUAACAAAAAAGACAAAUCUGCCAAAAAGCUUGAGAGCAUCUUCGGAUGCAGAGGCGGCAGCCUUCGGUGGCGCAAUAGCGCCUACGUUCUCAACUAUGACACGCAAAACGCGUGCUCCGUUGAAUGGAGUUUAUCAUG | ≤ -4.2
GGAUCUUGUCGAGCUAACAAAAAAGACAAAUCUGCCACAAAGCUUGAGAGCAUCUUCGGAUGCAGAGGCGGCAGCCUUCGGUGGCGCGAUAGCGCCAACGUUCUCAACUAUGACAGGCAAAACGCGUGCUCCGUUGAAUGGAGUUUAUCAUG | -3.71
GGAUCUUCUCGAUCUAACAAAAAAGACAAAGCUGCCUCAAAGCUUGAGCGCAUCUUCGGAUGCAGAGGCGGCAGCCUUCGGUGGCGCGAUAGAGCCAACGUUCUCGACUAUGACACCCAAAACGCGUGCUCCGUUGAAUGGAGUCUAACAUG | ≤ -4.2

Variant | polymerase ribozyme fitness (log ratio)
GGACCUUCUCGAUCUAACAAAAAAGACAAACCUGCCACAAAGCUUGAGAGCAUCUUCGGAUGCAGAGGCGGCAGCGUUCGGUGGCGCGAUAGCGCCAACGUUCUCAACUAUGACAGGCAAAACGCGUGCUCCGUUGAAUGGAGUUUAUCAUG | ≤ -4.2
GGAUCUUCUCGAUCUAACAAAAAAGACAAAUCUGCCACAAAGCUUGAGUGCAUCUUCGGAUCCAGAGGCGGCAGCCUUCGGUGGCGCGAUAGCGCCAACGUUCUCAACUAUGACACGCAAAAUGCGUGCUCCGUUGAAUGGAGUUUAUCAUG | -2.38
GGAUCUUCUCGAUCUAACAAAAAAGACAAAUCUGCCACAAAGCUUGAGAGCAUCUACGGAUGCAGAGGCGGCAGCCUUCGGUGGCGCGUUAGCGCGAACGUUCUCAACUAUGACACGCAAAACGCGUGCUCCGUUGAAUGGAGUUUAUCAUG | -1
GGAUCUUCUCGAUCUAUCAAAAAAGACACAUCUGCCACAAAGCUUGAGAGCAUCUUCGGAUGCAGCGGCGGCAGCCUUCGGUGGCGCGAUAGCGACAACGUUCUCAACUAUGACACGCAAAACGCGUGCUCGGUUGAAUGGAGUUUAUCAUG | ≤ -4.2
GGAUCUUCUCGAUCUAACAAAAAAGACAAAUCUGCCAUAAAGCUUGAGAGCAUCUUCGGAUGCAGAGGCGGCAGCCUUCGGUGGCGCGAUAGCGCGAACGUUCUCAACUAUGACACGCAAAACGCGUGCUCCGUUGAAUGGAGUUUAUCAUU | -3.85
GGAUCUUCUCGACCUAACAAAAAAGACAAAUCUGACACAAAGCUUGAGAGCAUCUUCGGAUGCAGAGGCGGCAGCCUUCGGUGGCGCGAUUGCGACAACGUUCCCAACUAUGACACGCAAAACGCGUGCUGCGUUGAAUGGAGUUUAUCAUG | ≤ -4.2
GGAUCUUCUCGAUCUAACAAAAAAGACAACUCAGCCACAAAGCUUGAGAGCAUCUUCGGAUGCAGAGUCGGCUGCCUUCGGUGGCGCGAUAGCGACAACGUUCUCAACUAUGAAACGCAAGACGCGUGCUCCGUUGAAUGGAGUUUAUCAUG | ≤ -4.2
GGAUCUUCUCGAUCUAACAAAGAAGACAAAGCUGCCACAAAGCUUGAGAGCAUUUUCGGAUGCAGAGGCGGCAGCCUUCGGUGGCGCGAUAGCGCGAACGUUCUCAACUAUGACGCGCAAAAGGCGUGCUCCGUUGCAUGGAGUUUAUCAUG | ≤ -4.2
GGAUCUUCUCGAUCUAACAAAAAAGACAAAUCUGCCACAAGGCUUGAGAGCAUCUUCGGAUGCAGAGGCGGCAGCCUUCGGUGACGCGGUAGCGCCAACGUUGUCAACUAUGACACGCAAAACGCGUGCUCCGUUGAAUGGAGUUUAUCAUG | -3.2
GGAUCUUCUCGAUCUAACAAAAAAGACAAAUUUGCCACAAAGCUUGAGAGCAUCUUCGGAUGCAGAGGCGGCAGCCUUCGGUGGCGCGAUAGCGCCAACGUUCUCAACUAUGACACGUAAAACGCGUGCUCCCUUGAAUGGAGUUUAUCAUG | -2.99
GGAUCUUCUCGAUCUAACAAAAAAGACAAAUCUGCCACAAAGCUUGAGAGCAUCUUCGGAUGCCGAGGCGGCUGCCUUCGGUGACGCGAUAGCGCCAACGUGCUCAACUAUGACAAGCAAAACGCGUGCUCCGUUGAAUGGAGUUUAUCAUG | ≤ -4.2
GGAUCUUCUCGAUCUAACAAAAAAGACAAAUCUGCCACAAAGCUUGAGAGCAUCUUCGGAUGCAGAGGCGGCAGCCUUCCGUGGCGCGAUAGCGCCAACGUUGUCAACUAUGACACGCAAAACACGUGCUCCGUUGAAUGGAGUUUGUCAUG | ≤ -4.2
GGAUCUUCUCGAUCUUACAAAAAAGACAAAUCUGCCACUAAGCUUGAGAGCAUCUUCGGAUGCAGAGGCGGCAGCCUUCGGUGACGCGAUAUCGCCAACGUUUUCAACUAUGACACGCAAAACGCGUGCUCCGUUGAAUGGAGUUUAUGACG | ≤ -4.2
GGAUCUUCUCGAUCUAACAAAAAAGACAAAUCUGCCACAAAGCAUGAGAGUAUCUUCGGAUGCAGAGGCGGCAGCUUUCGGUGGCGCGAUAGCGACAACGUUCUCAACUAUGACACGCAAAACGCGUGCUCCGUUGAAUGGAGUUUAUCAUG | ≤ -4.2
GGAUCUUCUCGAUAUAACAAAAAAGACAAAUCUGCCACAAAGCUUGAGAGCGUCGUCGGAUGCAGAGGCGGCAGCCUUCGGUGGCGCGAUAGCGCCAAUGUUCUCAACUAUGACACGCAAAACGCGUGCUCCGUUGAAUGGAGUUUAUCAUG | -3.48
GGAUCUUCUCGAUCUAACAAAAAAGACAAAUCUGCCACACAGCUUGAGAGCAUCUUCGGAUGCAGAGGCGGCAGCUUUCGGUGGCGCGAUAGCGACAACGUUCUCAACUAUGACACGCAAAACGCGUGCUGCGUUGAAUGUAGUUUAUCAUG | -1.68
GGAUCUUCACGAUCUGACAAAAAAGACAAAUCUGCCACAAAGCUAGAGAGCAUCUUAGGAUGCAGAGGCGGCAGGCUUCGGUUGCGCGAUAACGCCAACGUUCUCAACUAUGACACGCAAAACGCGUGCUCCGUUGAAUGGAGUUUAUCAUG | ≤ -4.2
GGAUCUUCUCGAUCUAACAAAAAAGAGAAAUCUGCCACAAAGCUUGAGAGCAUCUUCGGAUGCAGAGGCGACAGCCUUCGGUGGCGCGAUAGCGCCAACGUUCUCAACUAUGACACGCAAAACGCGUGCUCCGUUGACUGGCGUUUAUCAUG | ≤ -4.2
GGAUCUUCUCGAUCUAACAAAAAAGACAAAUCUGCCACAAAGCUUGAGAGCAACUUCGGAUGCAGAGGCGGCAGCCUUCGGUGGCGCGAUAGCGCCAACGUUCUCAACUAUGACACGGAAAACGCGUGCUCCGUUGAAUGGAGUUUAUCAUG | -2.5
